Results taken from the DeepSol protein solubility set.

Test: soluble on expression in E. coli; label from the status in PepcDB or PDB records

Sequence	soluble on expression in E. coli
TVIYDKNEKQAGTLYGQKGTYVELDAISDDLENAVISTEDRSFYKNSGINYKRMLLAIVTLGYSGGGSTITQQLAKNAFLTQEQTVKRKAREFFLALELTKKYSKKEILTMYLNNAYFGNGVWGVEDASQKYFGTSASRLTLDEAATLAGMLKGPGIYNPLYSI	not soluble
VARCQVPDCEADISELKGYHKRHRVCLRCATASFVVLDGENKRYCQQCGKFHLLPDFDEGKRSCRRKLERHNNRRKRKPVDKGGVA	soluble
VAVNNISNLINSRIRLTGISSGLDTDAIIEQLMSVERAKVDKIKQEKQILEWKRDIYRDIINKLRSITDEYFNVLKPKTNFTSQSAFTSFKISSSNESVVTVTANASAASKVHSITVHSLASAAKIVGTSGLVDGIKGSNAVNTLSLQGKEINVTLDGVTKTIALEDYTSLSDLETKLESALAKAFGTGKIDVVTTGGSIEFKCLLNGSTLSISDTANNYISSLGFSNGQKNFITGNSDVNSDFSLYTDGSFKITVGNGTAQTINISDATSIDDLVAKIQQAIDSNSELSGKVHVSNDGSKLTFISVSGETVKLTSGDSNNVLDKLGFSDGATITATSSTVIDLSGNEKGKTFIININGVDKIIEIDKDYNDLDELASYIQNQLGGTVNVTKDASGSRLVFSTGGADRLIFKKGPEDGLEKLGFTANDNRSNRISLTTKLDSLSTIFKNDLNIADPDANVVFTINGQTIDVGKTYANATLSDVMNAINSSSAGVKITYDSLNDRFIMESKTMGATSEIELTDTDPANGLLKAMGLIGGTYTAGTDAEFDLDGVTGMKRSTNEFTIEGVTYSLKGVSSEPVKIDVKADIDAVVENIKNFVNSYNEMLAKINSVLTEERYRDYLPLTDDQKKAMSEDDIKLWEQKAKSGLLRSDSILENIVTNLRRALYDKVEGCSLSLYQIGITTGSYQDKGKLVIDEEKLRAALTDNYDAVVQLFTQGSQYTYSEALNDPNKRAVRYKEAGIAQRIYDILQDNIRITRNANGKKGILLEKAGIAGDLTEYDNLIVNEIKAKETLIDEMLVKIYKKEEYYYSKFAAMEKMLDAMNSQSMWLTQQFSNYY	soluble
VAVTCRVLKLARQPYYRWRAHPVTDAEIVEAYRANALFDAHKDDPEFGYRYLVEEARDAGEPMAERTAWRICSQQGLWSVFGKKRGKNGKPGPPVHDDLVERDFTASEPNALWLSDITEHRTGEGKLYLCAIKDVFSNRIVGYSIDSRMKSRLATAALSSAVARRGDVDGCILHSDRGSQFRSRKFVHALHHHGMVGSMGRVGAAGDNAAMESFFSLLQKNVLDRRRWDTREQLRIAIVIWIERTYHRRRRQLTLGRLTPIEFEAIMTTPASQAA	soluble
VDLPGNDFDSNDFDAVDLWGADGAEGWTADPIIGVGSAATPDTGPDLDNAHGQAETDTEQEIALFTVTNPPRTVSVSTLMDGRIDHVELSARVAWMSESQLASEILVIADLARQKAQSAQYAFILDRMSQQVDADEHRVALLRKTVGETWGLPSPEEAAAAEAEVFATRYSDDCPAPDDESDPW	soluble
VDSKKRPGKDLDRIDRNILNELQKDGRISNVELSKRVGLSPTPCLERVRRLERQGFIQGYTALLNPHYLDASLLVFVEITLNRGAPDVFEQFNTAVQKLEEIQECHLVSGDFDYLLKTRVPDMSAYRKLLGETLLRLPGVNDTRTYVVMEEVKQSNRLVIKTR	soluble
VEAHPSLTLFSQLRIEHEDMAIAEDDWAWLRHKGHLRLGAALDETSPFNVRLDDENYEGITADVATLVGQLLGMRIKVVSFDTHADAVAALAAGKIDLLGSHYSSAGDSSLVLSQPYARDRLAVFKRMGEKRNSPEDLAGLSVAVAREHVGELRQRFPRARFVVFGSHDEAVAAVAFGHTDLYLDDVLSAYHRINRSYYGYVRFERFADARLEGGYGFLLRRGDTNLLRVVNSAIGAINQDRLESIARRWVGSGSLPTGQRIALTPQESRWIARHPVVRLVINDDLAPLAFFNSDETFSGIASDLLDMISRRTGLHFQVTPRSGGFPEQIGVLARKEADLAIMSRSSKREEMLRFTRSFLSTSYVLVTRADDKGRAEIPGSLDGKRIAIPAGHVGMQQVRERYPQASMVEVGVALDAMNLVYEGRADAAVVPLVTARYYIVRLFRERLAIADLVPIGAATAHFAVRRGDAELQSILDKALLSISPDDLSDIVNRWRSPPGMSGQT	soluble
VELIGRSEWINQYRRRLQQLSETDIAVWLYGAPGTGRMTGARYLHQFGRNAQGEFVYRELTPDNAPQLNDFIALAQGGTLVLSHPEHLTREQQYHLVQLQSQEHRPFRLIGIGDTSLVELAASNHIIAELYYCFAMTQIACLPLT	soluble
VFPSNATFGMGDRVRKKSGAAWQGQIVGWYCTNLTPEGYAVESEAHPGSVHIYPVAALERIN	soluble
VGDFTYSISANLSDFTSKMGNLNGTQFLGNQVKMEGSEYNEWYGYVSDGLFLTQEDVDKSPKLNNSVKVGDIKYKDISGPDGVPDGVISPEYDRVLLGGSLPHYMFGLTFNAAYKGWDFGLTLQGVGSQKSQISAAMIEGLRDNWLNFPTILDGNYWSPKNTDEQNATAKYPRLTRTNRDANFCMSDYWLYNGRYIRLKNLSVGYTLPKAWTTKACMNTVRLYVSGSDLFTISNAPKGWDPEVSTEGYPITTSLIFGVSINF	not soluble
VGKEKREIELFVSDPELEAEVKAASEGKMKAAIKTEEKKAREAAIEEVKEEILESYKAKELENEAEILGEVAHILEMIEKDEMRRLISQDKIRPDGRKVNEIRP	not soluble
VKKIGILVLITALLAGIIPKSALAEEPKFNYVDAFAKSILFYEANWCGPDAGNNRIKWRGPCHIEDGKDVGLDLTGGFHDCGDHVKFGLPQCASASTLAWAYHEFSDVFIEKGQDEYMLNILKHFCDYFMKCYPEKNKFYYQVGDGDVDHQYWGPPELQSYDRPTYYVATPENPGSDVAGDTAAALALMYLNYKDRDLEYAEKCLAYAKDIYEFGMTYRGNSKGQSYYLPRDYLDELMWGSLWLYVATGEQKYMDNLEKLMVEKRIGDEAGNSFNDNWTQCWDYVLTGVFIKLATLTDKPLYKQIAEDHLDYWQNRIKSTPGGLKYLDSWGVCKYPAAESMVQLVYYKYTGDKRCLDFAKSQIDYILGDNPKKMSYVVGFGDNYPKFPHHRAASGRLEGPPADETKNDPQRHILYGALVGGADINDEYYDDIDKYVYSETGLDYNAGLVGALAGMSKYFGQGQMPEDTPGIEGEPPVYYADAKIYEENESGITVDLNMYNIVTSPPQYESDLSCRYFVDLSEYAGENIDMSKFVTKVYYSPAGATISELKPYDKEKNIYYVEISFPNPVYARTYVQFCIYYYENKLWDSSNDFSYQGIGDTYKTLENIPIYKNGVLVAGKEPSGAGPVEPTPPPKNYVYGDVNGDGKVNSTDCSIVKRYLLKNIEDFPYEYGKEAGDVNGDGKVNSTDYSLLKRFVLRNIDKFPVEQ	not soluble
VKLDDHTYQINGRVLLDDLNKKFGIEFEDSEDIDTIGGWLQSQNTNLQKDDFVDTEYDRWTITEIDNHQIIWVNLNYEFNSGRPSVNEEQEDDERD	not soluble
VKVNPSVKPICDKCRLIRRHGRVMVICSDPRHKQRQG	not soluble
VLHQPPAMSSALGTTIRLTCTLRNDHDIGVYSVYWYQQRPGHPPRFLLRYFSQSDKSQGPQVPPRFSGSKDVARNRGYLSISELQPEDEAMYYCAMGARSTHVFGSGTQLTVLSAA	soluble
VLQTRNYTCGPAALATVLQRLGVNTTEDELAGLAGTTEEGTTMQGLLEASRAKGMNATGMKLNISELKENMIAYTINDGTGHYTVINEITNDTIKLADPSLGNIEMNIEEFAEIYSGYTLVI	soluble
VMPFTEHDKIILRSYEAVVDGIASLIGPFCEIVLHSLEDLNTSAIKIANGENTGRQVGSPITDLALKMLKDIEGSERNFSRSYFTRAKGGVLMKSITVAIRNGENRVIGLLCINVNLDAPFSQVLQSFMPTQEAKEAA	soluble
VMRLVTLRSHDQYNTTIYAMDDRYRGVFGRRDVLFMNEQDMAAQGLEHGDRVDIHTALPGSALTLEDITVVAYGIAPGTVGAYYPEANVLVPLNYLDEESGTPSYKSVPVRLTLRSKEIRPLVGGR	not soluble
VNEVLAKNLSLLKEYQPETYLKLDRYIKGEYVPKDNSVEKILLARQDDLIINILVKCSDKDFLLCDHENPINEAYAWIDKYIDPSNKADIVFGMGLAFHLEVLLTSFPNKKVIVIEPNINLFYQIACIRNLEPVIKKAEIIVDEDLDVILERINSLFWDTEKGGIQVQPLEVYGEMFPEMWDKLRDSFIKLANNFTVDIATRRKFGELWVHNNIKNLNKICEASNAGVLVGKFKGIPGILVSAGPSLEKNIHLLKGLEDKCVIMAAGTAVRIMEDFGLAPHFMVGIDAGAKEGEIHSNVKNKDIYFIYSNQVSTYSVDGYKGPKFVMNYPIDMYTAGFFEYAGIKSDFFLSGPSVANTCFDILFKMGCDPIIIIGQDMAFTYGSMYAGEVPGTVVDGAGEAKRRGYVLAKDIYGNEVYTTRPFLAMRNWFEGYFEKVRDKTTIINATEGGLNISYARNETLEAALKSCNLSESGIKDHIRSLHEEGKFADTVASKIEEYRAYVQREIRRLEQLSKRQLETAEDLKRDVYHPSKSRSRFIKAVNSINEMSDRVLQSPIYNSLLKNLVEIDFYIIKAEVDRLVKILTKYDDIKNVYVNAILSQNQKLNASLGKIKKFFDESDVTA	soluble
VRSVQEHQRVVAEMMRACRPITVPLTQAQGLVLGGDVVAPLSLPVFDNSAMDGYAVRAEDTSGATPQNPVMLPVAEDIPAGRADMLTLQPVTAHRIMTGAPVPTGATAIVPVEATDGGVDSVAIRQQATPGKHIRRSGEDVAAGTTVLHNGQIVTPAVLGLAAALGLAELPVLPRQRVLVISTGSELASPGTPLQPGQIYESNSIMLAAAVRDAGAAVVATATAGDDVAQFGAILDRYAVDADLIITSGGVSAGAYEVVKDAFGSADYRGGDHGVEFVKVAMQPGMPQGVGRVAGTPIVTLPGNPVSALVSFEVFIRPPLRMAMGLPDPYRPHRSAVLTASLTSPRGKRQFRRAILDHQAGTVISYGPPASHHLRWLASANGLLDIPEDVVEVAAGTQLQVWDLT	not soluble
VSRSRKEEERQEQSARLLSKLRRFDDLDRNWPIKILIQGLRFPIRSEQRLTEYFGCSNSYEISLRDIMNFLITDYEKIPLDLYEVCPAYKQKQIGRKTYSAIVNHLSEQGLGSTFRCEWNMRLKKLIRFMEKGWEYIPDSFRQYEYRA	soluble
VTAEEHVESEPLTKRDFEALARFRFGIRRYVRFSEDTVRDHGLTPQHYQLLLALKGFPGREWATMRELADRLQLRHHSVVELVDRAQKQGLVERAPHPSDARAVRVELTEHGQLILARLSAMHRDELLRLGPALELPIWDDPPQDR	not soluble
VTAHSIARRFGAPIETLARAADRIGEGDFDVTLPMTNVAEVGQLTRRFGLMAEALRQYRKTSVEEVLSGERRLQAVLDSIDDGLVIFDNQGRIEHANPVAIRQLFVSNDPHGKRIDEILSDVDVQEAVEKALLGEVQDEAMPDLVVDVAGESRLLAWSLYPVTHPGGHSVGAVLVVRDVTEQRAFERVRSEFVLRASHELRTPVTGMQMAFSLLRERLDFPAESREADLIQTVDEEMSRLVLLINDLLNFSRYQTGMQKLELASCDLVDLLTQAQQRFIPKGEARRVSLQLELGDELPRLQLDRLQIERVIDNLLENALRHSSEGGQIHLQARRQGDRVLIAVEDNGEGIPFSQQGRIFEPFVQVGRKKGGAGLGLALCKEIIQLHGGRIAVRSQPGQGARFYMLLP	not soluble
VTALDWRSALTADEQRSVRALVTATTAVDGVAPVGEQVLRELGQQRTEHLLVAGSRPGGPIIGYLNLSPPRGAGGAMAELVVHPQSRRRGIGTAMARAALAKTAGRNQFWAHGTLDPARATASALGLVGVRELIQMRRPLRDIPEPTIPDGVVIRTYAGTSDDAELLRVNNAAFAGHPEQGGWTAVQLAERRGEAWFDPDGLILAFGDSPRERPGRLLGFHWTKVHPDHPGLGEVYVLGVDPAAQRRGLGQMLTSIGIVSLARRLGGRKTLDPAVEPAVLLYVESDNVAAVRTYQSLGFTTYSVDTAYALAGTDN	not soluble
